In publication PMC11417369, “DNA sequence and chromatin differentiate sequence-specific transcription factor binding in the human malaria parasite Plasmodium falciparum”:

B1: GTGCAC_negctrl_site132 (dsDNA)
DNA 1: AAAGTAACACACTAATATTTTAACAAATAATATATA
DNA 2: TATATATTATTTGTTAAAATATTAGTGTGTTACTTT
B2: GTGCAC_negctrl_site376 (dsDNA)
DNA 1: AACAGAATAATACTAAATGAACGATTTCTCTTTATG
DNA 2: CATAAAGAGAAATCGTTCATTTAGTATTATTCTGTT
B3: GTGCAC_negctrl_site82 (dsDNA)
DNA 1: CTGATATATTATTTATCTGAATATATTAATATGTAT
DNA 2: ATACATATTAATATATTCAGATAAATAATATATCAG
B4: GTGCAC_negctrl_site610 (dsDNA)
DNA 1: AATATATGGTTTCATGATATAAAATTCAATTTAATG
DNA 2: CATTAAATTGAATTTTATATCATGAAACCATATATT
B5: GTGCAC_negctrl_site204 (dsDNA)
DNA 1: TAATATGTTTATGGTAACATACAAAAATGTATATAT
DNA 2: ATATATACATTTTTGTATGTTACCATAAACATATTA
B6: GTGCAC_negctrl_site199 (dsDNA)
DNA 1: AAAATTATATTTTATAGAAATTTAAATAAATATATA
DNA 2: TATATATTTATTTAAATTTCTATAAAATATAATTTT
B7: GTGCAC_negctrl_site724 (dsDNA)
DNA 1: TCCTCAAAAAAATAAAATAATTTATACTTTTTTAAA
DNA 2: TTTAAAAAAGTATAAATTATTTTATTTTTTTGAGGA
B8: GTGCAC_negctrl_site440 (dsDNA)
DNA 1: TTTTTTATTCCATAATATAATATGTTTTGAAATTTG
DNA 2: CAAATTTCAAAACATATTATATTATGGAATAAAAAA
B9: GTGCAC_negctrl_site308 (dsDNA)
DNA 1: TAATAATAGTACTGACATCAAAATCTTATTAAAAAT
DNA 2: ATTTTTAATAAGATTTTGATGTCAGTACTATTATTA
B10: GTGCAC_negctrl_site443 (dsDNA)
DNA 1: ATATAATTTGTTATACTAACTTTTTAATTATTGATA
DNA 2: TATCAATAATTAAAAAGTTAGTATAACAAATTATAT
B11: GTGCAC_negctrl_site520 (dsDNA)
DNA 1: AAAAAAAAATAAATAAATATATATAATATTTATGTT
DNA 2: AACATAAATATTATATATATTTATTTATTTTTTTTT
B12: GTGCAC_negctrl_site554 (dsDNA)
DNA 1: AAAAAAAAAAAATATTGTAGAATATGATGACTTTGT
DNA 2: ACAAAGTCATCATATTCTACAATATTTTTTTTTTTT
B13: GTGCAC_negctrl_site329 (dsDNA)
DNA 1: TTTTTTTCTTTTTCAAAAAAAAAAAAAAAAAAAATA
DNA 2: TATTTTTTTTTTTTTTTTTTTTGAAAAAGAAAAAAA
B14: GTGCAC_negctrl_site350 (dsDNA)
DNA 1: TTCACTTTTTTTTTTTTTTTTTTTTTTTTTTTTATT
DNA 2: AATAAAAAAAAAAAAAAAAAAAAAAAAAAAAGTGAA
B15: GTGCAC_negctrl_site167 (dsDNA)
DNA 1: TTGTATTTACACGATCAACCAAATGGTATATAAATA
DNA 2: TATTTATATACCATTTGGTTGATCGTGTAAATACAA
B16: GTGCAC_negctrl_site493 (dsDNA)
DNA 1: TTCTCAAATATAATAAAATTATAAAGTGACCTAACT
DNA 2: AGTTAGGTCACTTTATAATTTTATTATATTTGAGAA
B17: GTGCAC_negctrl_site522 (dsDNA)
DNA 1: TTTTTTACGCATAACTTAATATGAGAATCCCTTTCT
DNA 2: AGAAAGGGATTCTCATATTAAGTTATGCGTAAAAAA
B18: GTGCAC_negctrl_site104 (dsDNA)
DNA 1: TTTTTTTTTTCTTTTTTTTATTATATTAACGGAATT
DNA 2: AATTCCGTTAATATAATAAAAAAAAGAAAAAAAAAA
B19: GTGCAC_negctrl_site61 (dsDNA)
DNA 1: TGTTTTTTGTTCTTTACAAAAAAAAAAAAAAAAAAA
DNA 2: TTTTTTTTTTTTTTTTTTTGTAAAGAACAAAAAACA
B20: GTGCAC_negctrl_site163 (dsDNA)
DNA 1: ATTTTTTTATAAAATTTTTATATATTATATAAATAT
DNA 2: ATATTTATATAATATATAAAAATTTTATAAAAAAAT
B21: GTGCAC_negctrl_site23 (dsDNA)
DNA 1: TCCTATATATAAATATTAATATATATGTATTGGTAT
DNA 2: ATACCAATACATATATATTAATATTTATATATAGGA
B22: GTGCAC_negctrl_site631 (dsDNA)
DNA 1: AGAAGGTAAATAATTTACCCATATATATAAATATAT
DNA 2: ATATATTTATATATATGGGTAAATTATTTACCTTCT
B23: GTGCAC_site10284 (dsDNA)
DNA 1: TTCTCCTAATAGTTAGTGCACTACATAACTAAGAAA
DNA 2: TTTCTTAGTTATGTAGTGCACTAACTATTAGGAGAA
B24: GTGCAC_site10033 (dsDNA)
DNA 1: TTATAAAATTACTTGGTGCATTAGAATATTTCAATA
DNA 2: TATTGAAATATTCTAATGCACCAAGTAATTTTATAA
B25: GTGCAC_site9574 (dsDNA)
DNA 1: ATCATATTTATGTTGGTGCATTATACATAAAGTTTA
DNA 2: TAAACTTTATGTATAATGCACCAACATAAATATGAT
B26: GTGCAC_site10017 (dsDNA)
DNA 1: ATATATACTATAATAGTGCATTAAAAAAGTAAAAAT
DNA 2: ATTTTTACTTTTTTAATGCACTATTATAGTATATAT
B27: GTGCAC_site9426 (dsDNA)
DNA 1: ACGTGTATTTATTTAGTGCACTTTATATTTTTTCTT
DNA 2: AAGAAAAAATATAAAGTGCACTAAATAAATACACGT
B28: GTGCAC_site10490 (dsDNA)
DNA 1: TTTATATTTATTGTTGTGCACAGAACCATATTCGTT
DNA 2: AACGAATATGGTTCTGTGCACAACAATAAATATAAA
B29: GTGCAC_site9533 (dsDNA)
DNA 1: TTTTCTATTTAATTGGTGCACTGATATATACACATA
DNA 2: TATGTGTATATATCAGTGCACCAATTAAATAGAAAA
B30: GTGCAC_site10094 (dsDNA)
DNA 1: TATTAACAAATTTATGTGCACTGAGGACAAATATAT
DNA 2: ATATATTTGTCCTCAGTGCACATAAATTTGTTAATA
B31: GTGCAC_site10095 (dsDNA)
DNA 1: CTATATATAACCCATGTGCACTTTTTATGTACAATA
DNA 2: TATTGTACATAAAAAGTGCACATGGGTTATATATAG
B32: GTGCAC_site9436 (dsDNA)
DNA 1: AACGAGCAAGACGGGGTGCACACAAACTAATATGCC
DNA 2: GGCATATTAGTTTGTGTGCACCCCGTCTTGCTCGTT
B33: GTGCAC_site9736 (dsDNA)
DNA 1: ATATTTTATGTGTTGGTGCACATCTTTATTTAAACT
DNA 2: AGTTTAAATAAAGATGTGCACCAACACATAAAATAT
B34: GTGCAC_site9474 (dsDNA)
DNA 1: GCCCCCAAATTATGTGTGCACTTTATATTCCTGAGA
DNA 2: TCTCAGGAATATAAAGTGCACACATAATTTGGGGGC
B35: GTGCAC_site10202 (dsDNA)
DNA 1: AAAATGTAGAAATGGGTGCACACACATATATAATAT
DNA 2: ATATTATATATGTGTGTGCACCCATTTCTACATTTT
B36: GTGCAC_site10218 (dsDNA)
DNA 1: GATATATATACATGTGTGCACCATGCAACTTGTTTT
DNA 2: AAAACAAGTTGCATGGTGCACACATGTATATATATC
B37: GTGCAC_site9569 (dsDNA)
DNA 1: TATTTGTATATATGTGTGCACGTATAATCCATTAAA
DNA 2: TTTAATGGATTATACGTGCACACATATATACAAATA

Assays:
Experiment in all cases: gcPBM; about 25 ug protein; PBS, 1% milk, 0.2 mg/ml BSA, salmon testes DNA, 0.03% Triton X-100
SIP2 D1 = biological target: T1, SIP2 D1 (Plasmodium falciparum, UniProt C6KSN9 177-235); details: tags: N-terminal GST (pGEX-4T-1), kept; label: surface-attached array probe
T1 sequence: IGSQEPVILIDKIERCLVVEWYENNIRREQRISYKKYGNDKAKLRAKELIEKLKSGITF

HDP1 homeodomain-like = biological target: T2, HDP1 homeodomain-like (Plasmodium falciparum, UniProt Q8IKH4 2990-3078); details: tags: N-terminal GST (pGEX-4T-1), kept; chain copies: 2; label: surface-attached array probe
T2 sequence: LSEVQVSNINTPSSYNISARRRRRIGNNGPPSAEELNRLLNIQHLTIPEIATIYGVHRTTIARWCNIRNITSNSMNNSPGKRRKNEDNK

AP2-I D3 = AP2-I D3 (Plasmodium falciparum, UniProt Q8IJW6 910-1027); details: tags: N-terminal GST (pGEX-4T-1), kept; label: surface-attached array probe

Binder	binding signal (SIP2 D1)	binding signal (HDP1 homeodomain-like)	binding signal (AP2-I D3)
B1	6.76 ln median PBM intensity, better of two orientations	6.15 ln median PBM intensity, better of two orientations	–
B2	6.78 ln median PBM intensity, better of two orientations	5.96 ln median PBM intensity, better of two orientations	–
B3	6.78 ln median PBM intensity, better of two orientations	6.08 ln median PBM intensity, better of two orientations	–
B4	6.78 ln median PBM intensity, better of two orientations	6.09 ln median PBM intensity, better of two orientations	–
B5	6.79 ln median PBM intensity, better of two orientations	6.05 ln median PBM intensity, better of two orientations	–
B6	6.79 ln median PBM intensity, better of two orientations	6 ln median PBM intensity, better of two orientations	–
B7	6.79 ln median PBM intensity, better of two orientations	6.01 ln median PBM intensity, better of two orientations	–
B8	6.8 ln median PBM intensity, better of two orientations	6.16 ln median PBM intensity, better of two orientations	–
B9	6.81 ln median PBM intensity, better of two orientations	5.97 ln median PBM intensity, better of two orientations	–
B10	6.82 ln median PBM intensity, better of two orientations	6.13 ln median PBM intensity, better of two orientations	–
B11	6.84 ln median PBM intensity, better of two orientations	6.16 ln median PBM intensity, better of two orientations	–
B12	6.85 ln median PBM intensity, better of two orientations	6.29 ln median PBM intensity, better of two orientations	–
B13	6.85 ln median PBM intensity, better of two orientations	5.41 ln median PBM intensity, better of two orientations	–
B14	6.86 ln median PBM intensity, better of two orientations	6 ln median PBM intensity, better of two orientations	–
B15	6.87 ln median PBM intensity, better of two orientations	6.23 ln median PBM intensity, better of two orientations	–
B16	6.88 ln median PBM intensity, better of two orientations	6.1 ln median PBM intensity, better of two orientations	–
B17	6.89 ln median PBM intensity, better of two orientations	6.33 ln median PBM intensity, better of two orientations	–
B18	6.89 ln median PBM intensity, better of two orientations	6.2 ln median PBM intensity, better of two orientations	–
B19	6.89 ln median PBM intensity, better of two orientations	6.15 ln median PBM intensity, better of two orientations	–

Binder	binding signal (SIP2 D1)	binding signal (HDP1 homeodomain-like)	binding signal (AP2-I D3)
B20	6.9 ln median PBM intensity, better of two orientations	6.2 ln median PBM intensity, better of two orientations	–
B21	6.91 ln median PBM intensity, better of two orientations	6.35 ln median PBM intensity, better of two orientations	–
B22	6.91 ln median PBM intensity, better of two orientations	6.21 ln median PBM intensity, better of two orientations	–
B23	–	11.1 ln median PBM intensity, better of two orientations	12.4 ln median PBM intensity, better of two orientations
B24	–	11.1 ln median PBM intensity, better of two orientations	12.1 ln median PBM intensity, better of two orientations
B25	–	10.4 ln median PBM intensity, better of two orientations	12.1 ln median PBM intensity, better of two orientations
B26	–	9.53 ln median PBM intensity, better of two orientations	12 ln median PBM intensity, better of two orientations
B27	10.7 ln median PBM intensity, better of two orientations	11.3 ln median PBM intensity, better of two orientations	–
B28	10.4 ln median PBM intensity, better of two orientations	11.1 ln median PBM intensity, better of two orientations	–
B29	11.6 ln median PBM intensity, better of two orientations	10.5 ln median PBM intensity, better of two orientations	–
B30	10.5 ln median PBM intensity, better of two orientations	10.3 ln median PBM intensity, better of two orientations	–
B31	10.2 ln median PBM intensity, better of two orientations	10.1 ln median PBM intensity, better of two orientations	–
B32	11.8 ln median PBM intensity, better of two orientations	9.89 ln median PBM intensity, better of two orientations	–
B33	10.9 ln median PBM intensity, better of two orientations	9.88 ln median PBM intensity, better of two orientations	–
B34	11.2 ln median PBM intensity, better of two orientations	9.62 ln median PBM intensity, better of two orientations	–
B35	11.7 ln median PBM intensity, better of two orientations	9.58 ln median PBM intensity, better of two orientations	–
B36	11.1 ln median PBM intensity, better of two orientations	9.57 ln median PBM intensity, better of two orientations	–
B37	11.3 ln median PBM intensity, better of two orientations	9.32 ln median PBM intensity, better of two orientations	–
